From patent US20040120946A1
Where no end group is shown, it is not given here.

What was measured:
[1] = target: antibody against β1-adrenoceptor in DCM patient serum A (human); assay: batch adsorption: 50 uL adsorbent with 300 uL DCM patient serum A, 37 C, 2 h; antibody left in supernatant read by ELISA on plate-coated β1AR2nd peptide
[2] = target: antibody against β1-adrenoceptor in DCM patient serum B (human); assay: batch adsorption with DCM patient serum B, 37 C, 2 h; antibody left in supernatant read by ELISA on plate-coated β1AR2nd peptide
[3] = target: antibody against M2 muscarinic receptor in DCM patient serum C (human); assay: batch adsorption with DCM patient serum C, 37 C, 2 h; antibody left in supernatant read by ELISA on plate-coated M2R peptide
[4] = target: antibody against β1-adrenoceptor in DCM patient serum D (human); assay: batch adsorption with DCM patient serum D, 37 C, 2 h; antibody left in supernatant read by ELISA on plate-coated β1AR2nd peptide

B1: peptide (SEQ ID NO:4) immobilized on epoxy-activated GCL2000m (GCL2000m-SEQ ID NO:4) (peptide)
peptide: RAESDEARRCYNDPKCCDFVTNR
Adsorptive capacity [1]: 35%

B2: second loop of β1-adrenoceptor peptide (β1AR2nd) immobilized on CNBr-activated Sepharose 4B (Sepharose 4B-β1AR2nd) (peptide)
peptide: HWWRAESDEARRCYNDPKCCDFVTNR
modifications: cysteine pairing not given here; also: immobilized on CNBr-activated Sepharose 4B
Adsorptive capacity [1]: 15%

B3: peptide (SEQ ID NO:9) immobilized on epoxy-activated Kac (Kac-SEQ ID NO:9) (peptide)
peptide: HWWRAESDEARRCYNDPKCCDFVTNRGAC
modifications: cysteine pairing not given here; also: immobilized on epoxy-activated cellulose gel Kac
Adsorptive capacity [2]: 70%

B4: peptide (SEQ ID NO:10) immobilized on Eupergit C 250 L (Eu-SEQ ID NO:10) (peptide)
peptide: VRTVEDGECYIQFFSNAAVTFGTAIPAKK
modifications: also: immobilized on Eupergit C 250 L
Adsorptive capacity [3]: 60%

B5: peptides (SEQ ID NOS:11,12) co-immobilized on epoxy-activated Kac (Kac-SEQ ID NOS:11,12) (protein)
peptide 1: HWWRAESDEARRCYNDPKCCDFVTNRAC
peptide 2: VRTVEDGECYIQFFSNAAVTFGTAIC
modifications: cysteine pairing not given here; also: two separate peptides co-immobilized on epoxy-activated Kac
Adsorptive capacity [4]: 80%
